# Test results: PMC8319299, “PALI1 facilitates DNA and nucleosome binding by PRC2 and triggers an allosteric activation of catalysis” (Nature Communications, 2020)
# Where no end group is shown, it is not given here. [ ]: non-standard residue; d: D form. Lys(Me3) = C[N+](C)(C)CCCC[C@H](N)C(=O)O; Lys(Me2) = CN(C)CCCC[C@H](N)C(=O)O; Lys(Me) = CNCCCC[C@H](N)C(=O)O
# Molecular target: T1, EED (amino acids 40-441) (human, UniProt O75530-1 40-441)
# T1 construct: pGEX-MHL vector, TEV-cleavable GST tag; source: E. coli BL21 (DE3), purified (Glutathione-agarose, TEV cleavage, heparin, gel filtration); not shown: GST, N-terminal, cleaved
# Test: fluorescence polarisation; fluorescence anisotropy displacement titration: 2-fold serial dilutions of unlabelled peptide with 10 µM EED and 40 nM 5-FAM labelled JARID2-K116me3 peptide; same buffer, 30 °C; Kd of the unlabelled peptide from a fit
# Conditions: both partners purified
# T1 sequence (O75530 40-441): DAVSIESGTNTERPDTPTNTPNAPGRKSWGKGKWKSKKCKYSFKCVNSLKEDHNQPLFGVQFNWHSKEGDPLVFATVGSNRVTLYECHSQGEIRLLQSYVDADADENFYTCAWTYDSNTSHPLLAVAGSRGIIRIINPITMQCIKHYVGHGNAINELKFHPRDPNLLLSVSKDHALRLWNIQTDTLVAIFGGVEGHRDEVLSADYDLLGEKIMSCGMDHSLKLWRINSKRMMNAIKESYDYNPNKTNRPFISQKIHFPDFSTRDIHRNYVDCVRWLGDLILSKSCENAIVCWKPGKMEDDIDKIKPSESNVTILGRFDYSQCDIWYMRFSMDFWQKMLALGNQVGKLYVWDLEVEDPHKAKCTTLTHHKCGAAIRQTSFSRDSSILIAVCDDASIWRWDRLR
row,Kd [µM],Binder
1,7.49,LK[Lys(Me3)]FPG [PALI1-K1241me3 peptide]
2,41.7,"TKAAR[Lys(Me3)]SAPAT (also: trimethyllysine at K27, position not placed (two Lys in chain)) [H3K27me3 peptide]"
3,241,LK[Lys(Me)]FPG [PALI1-K1241me1 peptide]
4,19,LK[Lys(Me2)]FPG [PALI1-K1241me2 peptide]
5,7.59,LQ[Lys(Me3)]YA [PALI1-K1219me3 peptide]

# Molecular target: T1, EED (amino acids 40-441)
# Test: fluorescence polarisation; fluorescence anisotropy direct titration: various concentrations of EED (40-441) with 40 nM 5-FAM labelled JARID2-K116me3 peptide; 50 mM Tris-HCl pH 7.5, 100 mM KCl, 2 mM 2-mercaptoethanol, 0.1 mg/mL BSA, 0.05% NP-40, 2.5% glycerol; 30 °C, 30 min
# Conditions: both partners purified
row,Kd [µM],Binder
1,8.07,"RLQAQR[Lys(Me3)]FAQSQY (also: 5-FAM (5-carboxyfluorescein, single isomer) label, site not given here) [5-carboxyfluorescein (5-FAM) labelled JARID2-K116me3 peptide]"
